In US8362216B2, “Method of detection using antibodies that specifically bind hedgehog-derived polypeptides” (The Johns Hopkins University School of Medicine, priority 1994, dated 2013):

What was measured:
[1] = tested on: cholesterol biosynthesis; assay: Sterol analysis by HPLC of COS-7 cells metabolically labelled with [3H]-mevalonic acid; format: cell-based, green monkey; conditions: 28 mM jervine
Protocol: Given the structural similarities of these compounds to cholesterol and the similar teratogenic effects of cholesterol synthesis inhibitors upon the offspring of pregnant rats, a reasonable mechanism to consider for the effects of these plant sterol derivatives was the inhibition of cholesterol biosynthesis. Accordingly, COST cultured cells treated with jervine were tested for defects in cholesterol biosynthesis by labelling with [3H]-mevalonic acid and then extracting and analyzing radiolabeled, non-saponifiable lipids.
Metabolic labeling and sterol analysis was essentially as described (Popjak et al. J. Biol. Chem. 264: 630-6238.1989; Rilling et al. 1993 Arch. Biochem. Biophys. 301: 210-215.), with minor modifications. Briefly, COS-7 cells were plated at ˜35% confluence into two 60 mm dishes at 37° C. in 4 ml each of Dulbecco's modified Eagle's medium (DMEM) supplemented with 10% fetal bovine serum (FBS). After 24 hr of growth the medium in each dish was replaced with 2 ml fresh medium with 10% FBS; [^3H]-mevalonic acid (NEN #NET 176) brought to a specific activity of 0.8 Ci/mmol in a 1% solution of bovine serum albumin was added to this medium to a final concentration of […]. At this time, one dish received […] of a 4 mg/ml solution of jervine in ethanol (final concentration 28 mM jervine), and the other received […] of ethanol. After 24 hr further incubation, cells were washed in PBS, extracted with methanol, and 1 M potassium hydroxide (KOH) added to 10%. Following a three hour incubation at 60° C., the methanol/KOH mixture was extracted with diethyl ether, the extract dried down, resuspended in isopropanol, and subjected to reverse phase HPLC analysis by the method of Rodriguez and Parks (Methods in Enzymology 111: 37-51 1985).

[2] = tested on: auto-proteolysis; assay: In vitro translation of wild-type and mutant Hh proteins (mapping of auto-proteolysis); format: biochemical, Drosophila; zebrafish
[3] = tested on: Hh autoprocessing; assay: In vitro autocleavage assays of site-directed mutant His6Hh-C proteins; conditions: 6 hours at 30° C.
[4] = tested on: wg and dpp expression in imaginal discs; assay: Signaling in imaginal discs of thermally cycled larvae (wg-lacZ / dpp-lacZ, X-gal staining); conditions: thermal cycling of larvae
From the text: For studies of signaling in imaginal discs, a thermal cycler was utilized to subject larvae carrying heat shock-inducible hh constructs to successive rounds of heat shock and recovery. The effects of temperature cycling upon expression of dpp and wg in imaginal discs was examined by monitoring β-galactosidase expression from a reporter gene carrying dpp promoter sequences or from an enhancer detector P element inserted in the wg gene. In FIG. 7, X-gal staining was used to follow expression of wg FIG. 7 (A-C) or dpp FIG. 7 (D-L) in imaginal discs of late third-instar larvae that carry wg-lacZ or dpp-lacZ reporter genes.
Virgin female flies from the homozygous lines hshh (D. T. Chang et al., Development, 1994, in press), hshh H329A, and y^1 w^1118 were crossed to males from the homozygous BS3.0 line (bearing a P element dpp reporter construct on the 2nd chromosome, referred to as dpp-lacZ) (R. K. Blackman, et al., Development 111: 657, 1991) or the line y; Sco/CyO, enlacZ11::wg (bearing a wg reporter P element enhancer trap on a second chromosome balancer; called wg-lacZ) (J. A. Kassis, et al., Proc. Natl. Acad. Sci. U.S.A. 89; 1919, 1992). Progeny were grown at 25° C. in aerated 0.5-ml microcentrifuge tubes containing yeast paste until the late second instar or early third instar stage of larval development. […]

[5] = tested on: wg expression; assay: Embryonic induction of wg expression after heat shock of hshh / hshh H329A embryos (in situ hybridization)
From the text: To ascertain the importance of auto-proteolysis for these functions, the H329A mutant gene under control of the hsp 70 promoter was introduced by P element-mediated transformation into the Drosophila germline. The hshh H329A construct was made identically to the hshh construct with the use of a hh ORF fragment containing the H329A mutation. Transgenic flies were generated from a y^1 w^1118 parental strain using standard methods of P element mediated transformation (A. C. Spradling and G. M. Rubin, Science 218: 341 1982). […] To assay for expansion of wg stripes, embryos collected at 4 to 6 hours after egg laying (AEL) at 25° C. were subjected to the following heat shock protocols prior to fixation. Embryos receiving single shocks (10 or 30 minutes at 37° C.) were allowed to recover for 1 hour at 25° C. Embryos receiving double shocks (two 10 minute or two 30 minute shocks at 37° C.) were allowed to recover 90 minutes after the first shock and 40 minutes after the second (Both recoveries were at 25° C. The double 30 minute protocol was as previously described, (S. Krauss, supra). In situ hybridizations were performed as described (D. Tautz, Chromosoma 98: 81, 1989) using a wg specific probe (D. T. Chang et al., supra). Embryos assayed for cuticle phenotype were heat shocked 6 to 8 hours AEL for 30 minutes at 37° C., allowed to develop at 25° C. for 36 hours and then processed and mounted as described (M. Ashburner, Drosophila: A Laboratory Manual, Cold Spring Harbor Laboratory Press, New York, 1989).

[6] = tested on: pax-2 and pax-6 expression; assay: Ectopic expression of twhh derivatives by mRNA injection into zebrafish embryos; format: in vivo; conditions: mRNA injected embryos
Protocol: To gain insight into the potential roles of hh products in development, synthetic twhh and shh mRNA was injected into 1-8 cell embryos. This technique yields a mosaic but fairly uniform pattern of expression, as determined for the control mRNA encoding β-galactosidase (not shown). Uniformity of expression is in good agreement with fate mapping studies of the early zebrafish embryo (Kimmel & Warga, supra; Warga & Kimmel, supra; Heide, et al., Science, 265:517-520, 1994), which indicate that blastomeres undergo extensive cell mixing during the cleavages pnor to gastrulation.
Ectopic hh alters the expression of par-2, pax-6, and F-spondin. Zebrafish embryos were injected at the 1-8 cell stage with twhh or shh RNA and the pattern of pax-2, pax-6, or F-spondin expression was examined by whole mount in situ hybridization. […] At embryo stage, the anterior-posterior axis of the optic vesicle corresponds to the future proximal-distal axis of the eye. During the next hour of development, the posterior edge of the optic vesicle will separate from the diencephalon (Schmitt and Dowling, Comp. Neur., 344:532-542. 1994).
17(a) Cartoons of various twhh open reading frames. SS (shaded) is the predicted N-terminal signal sequence for secretion of these proteins and encompasses the first 27 amino acids of each open reading frame. The arrow indicates the predicted internal site of auto-proteolytic cleavage. Amino acid residue numbers are according to FIG. 13b. The filled triangle denotes the normal termination codon for the twhh open reading frame. Construct UHA contains a mutation that blocks auto-proteolysis (the histidine at residue 273 is changed to an alanine; see Lee, J. J., et al, supra.). Construct U356HA contains a stop codon in place of amino acid residue 357 as well as the H273A mutation in UHA. Construct N encodes just the first 200 amino acids of twhh. Construct C has had the codons for residues 31-197 deleted. […] Constructs were translated in vitro in the presence of ^35S methionine and analyzed by autoradiography after SDS-PAGE. The protein products are shown schematically to the left. […]

[7] = Heparin agarose binding of in vitro translated Hh protein species; parameters: species or system Drosophila; conditions: wash with 0.1% Triton X-100 and 150 mM NaCl
Protocol: In vitro translations were performed with the use of the TNT coupled transcription-translation system (Promega). ^35S methionine (DuPont NEN) was used for detection by autoradiography. […] Samples were incubated at 4° C. for four hours with gentle rocking. After pelleting the beads, supernatants in some samples were analyzed (lanes 2 and 4). The beads were then washed 5 times with chilled HBB and samples (lanes 3 and 5) were subsequently eluted at 80° C. for 10 minutes in SDS PAGE loading buffer (F. M. Ausubel et al., supra).
One possible explanation for this differential behavior might be association of the N fragment with extracellular matrix proteins on the surfaces of the S2 cells. Accordingly, the relative affinity of these two proteins for heparin agarose was examined, since heparin binding is a common property of proteins that associate with the extracellular matrix. Given the obvious difficulty in obtaining soluble N from cultured cells, in vitro translation in the presence of microsomes was used to generate soluble, labelled N and C. […] Furthermore, N but not C was retained upon the heparin agarose beads upon extensive washing with a solution that contains 0.1% Triton X-100 and 150 mM NaCl; in contrast, neither fragment was retained by unmodified agarose. […]

## CC1=C2C(=O)[C@H]3[C@@H](CC=C4C[C@@H](O)CC[C@@]43C)[C@@H]2CC[C@]12O[C@@H]1C[C@H](C)CN[C@H]1[C@H]2C [jervine]
[1]; COS 7 cells, 24 hr
  Accumulation of another radiolabeled sterol (tentatively zymosterol): another radiolabeled sterol was found to accumulate
  Radiolabeled cholesterol levels: reduced
[1]; COS-7 cells
  Cholesterol biosynthesis in cultured cells: inhibits cholesterol biosynthesis

B1: H329A: Drosophila Hh with His-329 to alanine; in vitro translated full length and His6Hh-C25 context (protein)
chain: CGPGRGLGRHRARNLYPLVLKQTIPNLSEYTNSASGPLEGVIRRDSPKFKDLVPNYNRDILFRDEEGTGADRLMSKRCKEKLNVLAYSVMNEWPGIRLLVTESWDEDYHHGQESLHYEGRAVTIATSDRDQSKYGMLARLAVEAGFDWVSYVSRRHIYCSVKSDSSISSHVHGCFTPESTALLESGVRKPLGELSIGDRVLSMTANGQAVYSEVILFMDRNLEQMQNFVQLHTDGGAVLTVTPAALVSVWQPESQKLTFVFADRIEEKNQVLVRDVETGELRPQRVVKVGSVRSKGVVAPLTREGTIVVNSVAASCYAVINSQSLAHWGLAPMRLLSTLEAWLPAKEQLHSSPKVVSSAQQQNGIHWYANALYKVKDYVLPQSWRHD
[2]
  Auto-proteolysis (processing) of in vitro translated protein: blocked or severely inhibited
[3]; 350 μM cholesterol/1 mM DTT
  Cholesterol-stimulated autocleavage (cholesterol transfer): inactive
[3]; 50 mM DTT
  DTT-stimulated autocleavage (thioester formation): inactive

B2: hshh H329A: heat shock-inducible hh with H329A mutation blocking auto-proteolysis (protein)
chain: CGPGRGLGRHRARNLYPLVLKQTIPNLSEYTNSASGPLEGVIRRDSPKFKDLVPNYNRDILFRDEEGTGADRLMSKRCKEKLNVLAYSVMNEWPGIRLLVTESWDEDYHHGQESLHYEGRAVTIATSDRDQSKYGMLARLAVEAGFDWVSYVSRRHIYCSVKSDSSISSHVHGCFTPESTALLESGVRKPLGELSIGDRVLSMTANGQAVYSEVILFMDRNLEQMQNFVQLHTDGGAVLTVTPAALVSVWQPESQKLTFVFADRIEEKNQVLVRDVETGELRPQRVVKVGSVRSKGVVAPLTREGTIVVNSVAASCYAVINSQSLAHWGLAPMRLLSTLEAWLPAKEQLHSSPKVVSSAQQQNGIHWYANALYKVKDYVLPQSWRHD
[4]
  Expansion of dpp expression in the eye-antennal disc: did not induce expansion of dpp expression
  wg and dpp expression patterns in the leg disc: produced little if any detectable difference in these patterns of expression
[5]; minutes of heat shock: 10
  Expansion of wg expression beyond wild-type controls, average number of cell diameters ± standard deviation: 0.7 ± 0.5 cell diameters
[5]; minutes of heat shock: 10/10
  Expansion of wg expression beyond wild-type controls, average number of cell diameters ± standard deviation: 1.1 ± 0.4 (145) cell diameters
[5]; minutes of heat shock: 30
  Expansion of wg expression beyond wild-type controls, average number of cell diameters ± standard deviation: 0.9 ± 0.4 (111) cell diameters
[5]; minutes of heat shock: 30/30
  Expansion of wg expression beyond wild-type controls, average number of cell diameters ± standard deviation: 1.9 ± 0.5 (93) cell diameters

B3: UHA: twhh with H273A mutation that blocks auto-proteolysis (protein, UniProt Q90419 27-416, looked up, variant H273A)
Tiggy-winkle hedgehog protein: CGPGRGYGKRRHPKKLTPLAYKQFIPNVAEKTLGASGKYEGKITRNSERFKELIPNYNPDIIFKDEENTNADRLMTKRCKDKLNSLAISVMNHWPGVKLRVTEGWDEDGHHLEESLHYEGRAVDITTSDRDKSKYGMLSRLAVEAGFDWVYYESKAHIHCSVKAENSVAAKSGGCFPGSGTVTLGDGTRKPIKDLKVGDRVLAADEKGNVLISDFIMFIDHDPTTRRQFIVIETSEPFTKLTLTAAALVFVGNSSAASGITATFASNVKPGDTVLVWEDTCESLKSVTVKRIYTEEHEGSFAPVTAHGTIIVDQVLASCYAVIENHKWAHWAFAPVRLCHKLMTWLFPARESNVNFQEDGIHWYSNMLFHIGSWLLDRDSFHPLGILHLS
[6]
  Ectopic activation (induction) of pax-2 in the developing eye: only somewhat less active than C in inducing pax-2
  Repression of pax-6: not able to repress pax6 efficiently

B4: U356HA: twhh with stop codon in place of residue 357 and the H273A mutation (protein, UniProt Q90419 27-416, looked up, variant H273A)
Tiggy-winkle hedgehog protein: CGPGRGYGKRRHPKKLTPLAYKQFIPNVAEKTLGASGKYEGKITRNSERFKELIPNYNPDIIFKDEENTNADRLMTKRCKDKLNSLAISVMNHWPGVKLRVTEGWDEDGHHLEESLHYEGRAVDITTSDRDKSKYGMLSRLAVEAGFDWVYYESKAHIHCSVKAENSVAAKSGGCFPGSGTVTLGDGTRKPIKDLKVGDRVLAADEKGNVLISDFIMFIDHDPTTRRQFIVIETSEPFTKLTLTAAALVFVGNSSAASGITATFASNVKPGDTVLVWEDTCESLKSVTVKRIYTEEHEGSFAPVTAHGTIIVDQVLASCYAVIENHKWAHWAFAPVRLCHKLMTWLFPARESNVNFQEDGIHWYSNMLFHIGSWLLDRDSFHPLGILHLS
modifications: truncated after residue 356
notes: twhh with stop codon in place of residue 357 and the H273A mutation
[6]
  Repression of pax-6: activities not significantly different from N

B5: C-terminal fragment: Drosophila hh 25 kD C-terminal fragment (protein)
chain: CFTPESTALLESGVRKPLGELSIGDRVLSMTANGQAVYSEVILFMDRNLEQMQNFVQLHTDGGAVLTVTPAHLVSVWQPESQKLTFVFADRIEEKNQVLVRDVETGELRPQRVVKVGSVRSKGVVAPLTREGTIVVNSVAASCYAVINSQSLAHWGLAPMRLLSTLEAWLPAKEQLHSSPKVVSSAQQQNGIHWYANALYKVKDYVLPQSWRHD
[7]
  Binding to heparin agarose: not bound effectively by heparin agarose
